The values that follow come from patent publication US20050114927A1 (RUTGERS THE STATE UNIVERSITY, published 2005).

This test concerns the target T1, Yeast wild-type ribosomal protein L3 (rpl3), in vitro synthesized, free form (Saccharomyces cerevisiae (yeast), UniProt P14126 1-387).
T1 construct: also called wild-type L3; radiolabeled L3
As to the kind of experiment: co-immunoprecipitation, isolated proteins in vitro.

T1 sequence (P14126 whole entry): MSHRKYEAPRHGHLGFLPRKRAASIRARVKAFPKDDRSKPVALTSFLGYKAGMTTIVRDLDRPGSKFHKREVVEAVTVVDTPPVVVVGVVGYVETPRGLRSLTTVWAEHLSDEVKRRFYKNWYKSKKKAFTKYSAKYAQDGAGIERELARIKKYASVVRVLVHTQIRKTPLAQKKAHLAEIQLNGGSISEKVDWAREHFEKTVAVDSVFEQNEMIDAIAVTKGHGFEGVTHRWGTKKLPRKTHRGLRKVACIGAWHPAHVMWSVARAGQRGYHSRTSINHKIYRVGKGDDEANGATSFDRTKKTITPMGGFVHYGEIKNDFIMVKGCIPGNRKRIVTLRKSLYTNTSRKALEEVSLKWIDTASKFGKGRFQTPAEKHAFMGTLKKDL

B1: Pokeweed antiviral protein (PAP) (enzyme)
chain: VNTIIYNVGSTTISKYATFLNDLRNEAKDPSLKCYGIPMLPNTNTNPKYVLVELQGSNKKTITLMLRRNNLYVMGYSDPFETNKCRYHIFNDISGTERQDVETTLCPNANSRVSKNINFDSRYPTLESKAGVKSRSQVQLGIQILDSNIGKISGVMSFTEKTEAEFLLVAIQMVSEAARFKYIENQVKTNFNRAFNPNPKVLNLQETWGKISTAIHDAKNGVLPKPLELVDASGAKWIVLRVDEIKPDVALLNYVGGSCQTTY
notes: mature
With B1, the binding result is reported as “binds”.
